Biological target: T1, His-tagged C. albicans TATA box Binding Protein (TBP) (C. albicans, UniProt O43133 1-238)
T1 construct: Vector pET28a; fusion protein said to be 30 kDa; also called TBP1; TBP-pET28a; source: E. coli BL21 (DE3), purified (Ni-NTA)
T1 sequence: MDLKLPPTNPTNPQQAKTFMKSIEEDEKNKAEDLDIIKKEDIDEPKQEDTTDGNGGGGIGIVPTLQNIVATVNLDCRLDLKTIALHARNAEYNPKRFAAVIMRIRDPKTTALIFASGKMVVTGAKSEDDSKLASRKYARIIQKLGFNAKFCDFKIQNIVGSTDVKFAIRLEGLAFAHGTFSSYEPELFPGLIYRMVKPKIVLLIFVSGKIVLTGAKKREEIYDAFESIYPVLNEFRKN
Experiment: pull-down; GST-AAD and His-TBP incubated with Glutathione Sepharose 4B beads, 3 h, 4 C, 20 mM HEPES pH 7.5, 200 mM NaCl, 0.1 mM EDTA, 10% glycerol, 0.1% NP-40; washes with 500 mM NaCl; eluted with 10 mM reduced glutathione; immunoblot with anti-GST and anti-His
Conditions: both partners purified

B1: GST-tagged Acidic Activation Domain (AAD) of Tac1p (domain or fragment)
chain: MNPSPTITNNTYNSNINTGSNSTGEPQVCYAQSPSYNASLSNIINNESTGRSPATSTSINQSMMNENYDLFNDYLIDNSAVNLPFSQFNNLPNFFFDNNLGI
notes: amplified from genomic DNA of strain SC5314; Vector pGEX-KG; fusion protein said to be 33 kDa; several closely spaced bands (degradation) on the anti-GST blot; The introduction gives other limits for the AAD (nucleotides 1354-2946); also called Tac1-AAD; TAC1-AAD; source: E. coli BL21 (DE3), purified (Glutathione Sepharose 4B)
  binding result: binds

From PMC10370356, “Molecular dissection studies of TAC1, a transcription activator of Candida drug resistance genes of the human pathogenic fungus Candida albicans” (Frontiers in Microbiology, 2023)
